T1: insoluble fibrin (Homo sapiens, UniProt P02675+P02679)
T1 sequence (P02675 45-491 limits assumed): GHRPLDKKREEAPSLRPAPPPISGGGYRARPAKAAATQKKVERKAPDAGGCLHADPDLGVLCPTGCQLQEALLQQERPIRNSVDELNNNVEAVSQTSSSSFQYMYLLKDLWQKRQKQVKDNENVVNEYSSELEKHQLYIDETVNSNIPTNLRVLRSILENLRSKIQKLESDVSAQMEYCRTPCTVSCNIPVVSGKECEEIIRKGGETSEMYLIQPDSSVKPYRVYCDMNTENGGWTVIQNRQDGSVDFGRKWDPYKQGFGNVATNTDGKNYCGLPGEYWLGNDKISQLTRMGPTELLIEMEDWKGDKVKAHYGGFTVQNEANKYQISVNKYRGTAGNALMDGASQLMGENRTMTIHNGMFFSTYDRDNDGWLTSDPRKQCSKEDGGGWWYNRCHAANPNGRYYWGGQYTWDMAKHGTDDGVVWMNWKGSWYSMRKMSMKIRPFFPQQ
T1 sequence (P02679 27-453): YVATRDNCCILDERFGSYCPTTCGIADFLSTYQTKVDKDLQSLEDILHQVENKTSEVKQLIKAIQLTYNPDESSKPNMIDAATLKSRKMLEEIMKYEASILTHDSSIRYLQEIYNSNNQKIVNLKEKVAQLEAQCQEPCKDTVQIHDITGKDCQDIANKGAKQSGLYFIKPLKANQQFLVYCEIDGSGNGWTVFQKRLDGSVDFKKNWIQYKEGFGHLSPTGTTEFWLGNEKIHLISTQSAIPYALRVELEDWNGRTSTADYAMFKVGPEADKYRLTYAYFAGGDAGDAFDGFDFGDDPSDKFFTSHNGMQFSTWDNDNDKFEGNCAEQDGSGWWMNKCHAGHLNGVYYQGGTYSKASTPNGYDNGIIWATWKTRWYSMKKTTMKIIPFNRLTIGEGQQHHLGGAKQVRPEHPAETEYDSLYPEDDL

B1: 34-105 antibody: monoclonal anti-γ chain antibody produced by hybridoma 34-105; L chain variable region SEQ ID NO: 3, H chain variable region SEQ ID NO: 7 (antibody, listed as Mus musculus, V domains shown)
VH: EVKLQESGGGLVKPGGSLKLSCAASGFTFSSYAMSWVRQTPEKRLEWVAAISSGGTTYYPDSVKGRFTISRDNARNILYLQMSSLRSEDTAMYYCVRGGTIGAYWGQGTLVTVSA
VL: DIVITQSPASLAVSLGQRATISYRASKSVSTSGYSYMHWNQQKPGQPPRLLIYLVSNLESGVPARFSGSGSGTDFTLNIHPVEEEDAATYYCQHIRELTRSEGGPSWK
modifications: SITE (1)..(115) Variable Region of Heavy Chain (34-105); SITE (1)..(108) Variable Region of Light Chain(34-105)
B2: Fib-0355 antibody: monoclonal anti-β chain antibody produced by hybridoma Fib-0355; L chain variable region SEQ ID NO: 11, H chain variable region SEQ ID NO: 15 (antibody, listed as Mus musculus, V domains shown)
VH: GPELKKPGETVKISCKASGYTFTNYGMNWVKQAPGKGLKWMGWINTNTGEPTYAEEFKGRFAFSLETSASTAYLQINNLKNEDTATYFCARLLDYWGQGTTLTVSS
VL: PSSLAVSAGEKVTMSCKSSQSVLYSSNQKNYLAWYQQKPGQSPKLLIYWASTRESGVPDRFTGSGSGTDFTLTISSVQAEDLAVYYCQQYLSSYTFGG
modifications: SITE (1)..(106) Variable Region of Heavy Chain (Fib-0355); SITE (1)..(98) Variable Region of Light Chain(Fib-0355)

Biological target: T1, insoluble fibrin
Test: ELISA method of Example 2, fibrin plate
Type: binding
Details: antibody 10 μg/mL
Description: Each of the antibody solutions (100 μL each) at 10 μg/mL was added to the fibrin plate and the fibrinogen plate, and allowed to stand at room temperature for 1 hour. After washing with TBS-T, Bethyl Anti-Human IgG-HRP (×1000 dilution) or Bethyl Anti-Mouse IgG-HRP (×10000 dilution) was added as a secondary antibody. Then, after washing with TBS-T, colorimetry was conducted with OPD for 10 minutes, and measurement was conducted at an absorption wavelength of 492 nm.

Molecule | affinity for insoluble fibrin (absorbance at 492 nm) relative to that of the 102-10 antibody [times] | ratio of the affinity for insoluble fibrin to the affinity for fibrinogen (absorbance at 492 nm) [times]
B1 | 16 | 25
B2 | 12 | 

From patent publication US9429584B2, “Antibody against insoluble fibrin” (National Cancer Center, priority 2013, dated 2016)
